# Test system: Abp1 PPIs
# Test: DHFR-PCA of Abp1 SH3-swapped baits (Fig. 2B-D, S2C, S2F);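 on Protein-protein interaction distance between Abp1 SH3-swapped baits, to ABP1: Euclidean distance between DHFR-PCA score profiles of the baits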;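 on Protein-protein interaction distance between Abp1 SH3-swapped baits, to BEM1-2: Euclidean distance between DHFR-PCA score profiles of the baits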;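 on Protein-protein interaction distance between Abp1 SH3-swapped baits, to BOI1: Euclidean distance between DHFR-PCA score profiles of the baits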;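 on Protein-protein interaction distance between Abp1 SH3-swapped baits, to BZZ1-1: Euclidean distance between DHFR-PCA score profiles of the baits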
# Type: cell-based, Saccharomyces cerevisiae
# How it was run: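 Yeast DHFR-PCA in which Abp1 baits, carrying their SH3 replaced by CRISPR–Cas9 with one of 27 yeast SH3s or human CTTN, HCLS1 or DBNL SH3s, were mated against 575 SH3-associated DHFR F[3] preys plus 40 negative controls. Four tests were run per PPI. Diploids were selected twice (48 h, 30 °C), then grown 4 days on PCA selection media.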
# [1] = number of PPIs, difference, Abp1 SH3-swapped with the listed SH3, Fig2D,S2F
molecule,measurement,setting,value
"MYO3 (protein, UniProt P36006 1-1272, looked up) Myosin-3: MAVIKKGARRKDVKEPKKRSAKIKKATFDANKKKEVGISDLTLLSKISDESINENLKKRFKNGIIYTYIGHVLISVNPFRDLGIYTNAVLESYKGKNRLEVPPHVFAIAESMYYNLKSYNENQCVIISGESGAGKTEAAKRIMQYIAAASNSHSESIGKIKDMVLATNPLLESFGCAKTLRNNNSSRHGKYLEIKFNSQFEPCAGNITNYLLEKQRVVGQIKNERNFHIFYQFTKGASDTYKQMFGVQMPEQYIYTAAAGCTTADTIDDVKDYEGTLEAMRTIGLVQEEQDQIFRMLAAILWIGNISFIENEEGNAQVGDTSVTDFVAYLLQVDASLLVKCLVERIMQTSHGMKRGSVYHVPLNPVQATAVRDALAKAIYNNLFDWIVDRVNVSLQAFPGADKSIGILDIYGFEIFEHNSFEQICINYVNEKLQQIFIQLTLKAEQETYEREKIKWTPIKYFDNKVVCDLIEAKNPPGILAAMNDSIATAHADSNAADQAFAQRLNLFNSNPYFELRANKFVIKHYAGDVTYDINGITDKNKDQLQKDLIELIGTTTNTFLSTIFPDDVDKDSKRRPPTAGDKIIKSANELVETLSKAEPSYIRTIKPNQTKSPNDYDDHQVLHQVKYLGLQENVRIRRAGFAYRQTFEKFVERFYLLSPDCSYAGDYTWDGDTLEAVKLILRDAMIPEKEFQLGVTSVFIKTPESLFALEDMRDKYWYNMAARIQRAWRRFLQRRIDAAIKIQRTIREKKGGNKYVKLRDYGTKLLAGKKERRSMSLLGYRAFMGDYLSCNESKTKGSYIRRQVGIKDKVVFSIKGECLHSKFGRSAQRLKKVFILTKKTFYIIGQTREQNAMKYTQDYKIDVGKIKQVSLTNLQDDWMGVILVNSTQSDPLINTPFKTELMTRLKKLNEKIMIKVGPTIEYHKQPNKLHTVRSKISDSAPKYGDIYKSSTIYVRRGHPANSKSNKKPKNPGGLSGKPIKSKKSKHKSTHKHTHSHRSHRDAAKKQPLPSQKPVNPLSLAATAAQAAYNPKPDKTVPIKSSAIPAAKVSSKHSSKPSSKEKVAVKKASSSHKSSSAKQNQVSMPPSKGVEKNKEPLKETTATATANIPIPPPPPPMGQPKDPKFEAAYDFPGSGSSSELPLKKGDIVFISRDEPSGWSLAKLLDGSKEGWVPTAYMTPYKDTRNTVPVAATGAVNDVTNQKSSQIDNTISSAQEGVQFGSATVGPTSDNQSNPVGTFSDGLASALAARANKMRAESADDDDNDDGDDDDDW","Protein-protein interaction distance between Abp1 SH3-swapped baits, to ABP1","Abp1 bait with swapped SH3, distance to bait with ABP1 SH3, sheet Fig2C",12.85
same,"Protein-protein interaction distance between Abp1 SH3-swapped baits, to BBC1","distance to Abp1 bait with BBC1 SH3, sheet Fig2C",13.06
same,"Protein-protein interaction distance between Abp1 SH3-swapped baits, to BEM1-1","distance to Abp1 bait with BEM1-1 SH3, sheet Fig2C",17.48
same,"Protein-protein interaction distance between Abp1 SH3-swapped baits, to BEM1-2","distance to Abp1 bait with BEM1-2 SH3, sheet Fig2C",35.25
same,"Protein-protein interaction distance between Abp1 SH3-swapped baits, to BOI1","distance to Abp1 bait with BOI1 SH3, sheet Fig2C",14.63
same,"Protein-protein interaction distance between Abp1 SH3-swapped baits, to BOI2","distance to Abp1 bait with BOI2 SH3, sheet Fig2C",17.97
same,"Protein-protein interaction distance between Abp1 SH3-swapped baits, to BUD14","distance to Abp1 bait with BUD14 SH3, sheet Fig2C",20.78
same,"Protein-protein interaction distance between Abp1 SH3-swapped baits, to BZZ1-1","distance to Abp1 bait with BZZ1-1 SH3, sheet Fig2C",10.1
same,"Protein-protein interaction distance between Abp1 SH3-swapped baits, to BZZ1-2","distance to Abp1 bait with BZZ1-2 SH3, sheet Fig2C",14.12
same,"Protein-protein interaction distance between Abp1 SH3-swapped baits, to CDC25","distance to Abp1 bait with CDC25 SH3, sheet Fig2C",29.41
same,"Protein-protein interaction distance between Abp1 SH3-swapped baits, to CTTN","distance to Abp1 bait with CTTN SH3, sheet Fig2C",15.21
same,"Protein-protein interaction distance between Abp1 SH3-swapped baits, to CYK3","distance to Abp1 bait with CYK3 SH3, sheet Fig2C",30.11
same,"Protein-protein interaction distance between Abp1 SH3-swapped baits, to DBNL","distance to Abp1 bait with DBNL SH3, sheet Fig2C",10.74
same,"Protein-protein interaction distance between Abp1 SH3-swapped baits, to FUS1","distance to Abp1 bait with FUS1 SH3, sheet Fig2C",21.97
same,"Protein-protein interaction distance between Abp1 SH3-swapped baits, to HCLS1","distance to Abp1 bait with HCLS1 SH3, sheet Fig2C",11.19
same,"Protein-protein interaction distance between Abp1 SH3-swapped baits, to HOF1","distance to Abp1 bait with HOF1 SH3, sheet Fig2C",33.94
same,"Protein-protein interaction distance between Abp1 SH3-swapped baits, to HSE1","distance to Abp1 bait with HSE1 SH3, sheet Fig2C",11.17
same,"Protein-protein interaction distance between Abp1 SH3-swapped baits, to LSB1","distance to Abp1 bait with LSB1 SH3, sheet Fig2C",9.135
same,"Protein-protein interaction distance between Abp1 SH3-swapped baits, to LSB3","distance to Abp1 bait with LSB3 SH3, sheet Fig2C",9.625
same,"Protein-protein interaction distance between Abp1 SH3-swapped baits, to MYO3","distance to Abp1 bait with MYO3 SH3, sheet Fig2C",0.00
same,"Protein-protein interaction distance between Abp1 SH3-swapped baits, to MYO5","distance to Abp1 bait with MYO5 SH3, sheet Fig2C",5.861
same,"Protein-protein interaction distance between Abp1 SH3-swapped baits, to NBP2","distance to Abp1 bait with NBP2 SH3, sheet Fig2C",19.88
same,"Protein-protein interaction distance between Abp1 SH3-swapped baits, to PEX13","distance to Abp1 bait with PEX13 SH3, sheet Fig2C",8.874
same,"Protein-protein interaction distance between Abp1 SH3-swapped baits, to PIN3","distance to Abp1 bait with PIN3 SH3, sheet Fig2C",8.374
same,"Protein-protein interaction distance between Abp1 SH3-swapped baits, to RVS167","distance to Abp1 bait with RVS167 SH3, sheet Fig2C",9.049
same,"Protein-protein interaction distance between Abp1 SH3-swapped baits, to SDC25","distance to Abp1 bait with SDC25 SH3, sheet Fig2C",35.91
same,"Protein-protein interaction distance between Abp1 SH3-swapped baits, to SHO1","distance to Abp1 bait with SHO1 SH3, sheet Fig2C",10.66
same,"Protein-protein interaction distance between Abp1 SH3-swapped baits, to SLA1-1","distance to Abp1 bait with SLA1-1 SH3, sheet Fig2C",31.98
same,"Protein-protein interaction distance between Abp1 SH3-swapped baits, to SLA1-2","distance to Abp1 bait with SLA1-2 SH3, sheet Fig2C",22.64
same,"Protein-protein interaction distance between Abp1 SH3-swapped baits, to SLA1-3","distance to Abp1 bait with SLA1-3 SH3, sheet Fig2C",9.056
same,"Protein-protein interaction distance between Abp1 SH3-swapped baits, to YSC84","distance to Abp1 bait with YSC84 SH3, sheet Fig2C",9.995
same,PPIs gained by Abp1 - SH3-dependent PPIs gained by Abp1,[1],24
same,SH3-dependent PPIs - SH3-dependent PPIs gained by Abp1,[1],13
same,SH3-dependent PPIs gained by Abp1,"number of PPIs, Abp1 SH3-swapped with the listed SH3, DHFR-PCA, Fig2D,S2F",4

# Reference: PMC7954794, “Protein context shapes the specificity of SH3 domain-mediated interactions in vivo” (Nature Communications, 2021)
